According to PMC9370829 (Nature, 2022):

B1: UvrA, individually purified (natural protein, E. coli, UniProt P0A698 1-940, looked up)
chain: MDKIEVRGARTHNLKNINLVIPRDKLIVVTGLSGSGKSSLAFDTLYAEGQRRYVESLSAYARQFLSLMEKPDVDHIEGLSPAISIEQKSTSHNPRSTVGTITEIHDYLRLLFARVGEPRCPDHDVPLAAQTVSQMVDNVLSQPEGKRLMLLAPIIKERKGEHTKTLENLASQGYIRARIDGEVCDLSDPPKLELQKKHTIEVVVDRFKVRDDLTQRLAESFETALELSGGTAVVADMDDPKAEELLFSANFACPICGYSMRELEPRLFSFNNPAGACPTCDGLGVQQYFDPDRVIQNPELSLAGGAIRGWDRRNFYYFQMLKSLADHYKFDVEAPWGSLSANVHKVVLYGSGKENIEFKYMNDRGDTSIRRHPFEGVLHNMERRYKETESSAVREELAKFISNRPCASCEGTRLRREARHVYVENTPLPAISDMSIGHAMEFFNNLKLAGQRAKIAEKILKEIGDRLKFLVNVGLNYLTLSRSAETLSGGEAQRIRLASQIGAGLVGVMYVLDEPSIGLHQRDNERLLGTLIHLRDLGNTVIVVEHDEDAIRAADHVIDIGPGAGVHGGEVVAEGPLEAIMAVPESLTGQYMSGKRKIEVPKKRVPANPEKVLKLTGARGNNLKDVTLTLPVGLFTCITGVSGSGKSTLINDTLFPIAQRQLNGATIAEPAPYRDIQGLEHFDKVIDIDQSPIGRTPRSNPATYTGVFTPVRELFAGVPESRARGYTPGRFSFNVRGGRCEACQGDGVIKVEMHFLPDIYVPCDQCKGKRYNRETLEIKYKGKTIHEVLDMTIEEAREFFDAVPALARKLQTLMDVGLTYIRLGQSATTLSGGEAQRVKLARELSKRGTGQTLYILDEPTTGLHFADIQQLLDVLHKLRDQGNTIVVIEHNLDVIKTADWIVDLGPEGGSGGGEILVSGTPETVAECEASHTARFLKPML

Columns and labels:
[1] = molecular target: B1; experiment: cross-linking
cross-linking = molecular target: the molecule itself; experiment: cross-linking

binding result [1]	Binder	binding result (cross-linking)
binds	UvrB, individually purified (natural protein, E. coli, UniProt P0A8F8 1-673, looked up) MSKPFKLNSAFKPSGDQPEAIRRLEEGLEDGLAHQTLLGVTGSGKTFTIANVIADLQRPTMVLAPNKTLAAQLYGEMKEFFPENAVEYFVSYYDYYQPEAYVPSSDTFIEKDASVNEHIEQMRLSATKAMLERRDVVVVASVSAIYGLGDPDLYLKMMLHLTVGMIIDQRAILRRLAELQYARNDQAFQRGTFRVRGEVIDIFPAESDDIALRVELFDEEVERLSLFDPLTGQIVSTIPRFTIYPKTHYVTPRERIVQAMEEIKEELAARRKVLLENNKLLEEQRLTQRTQFDLEMMNELGYCSGIENYSRFLSGRGPGEPPPTLFDYLPADGLLVVDESHVTIPQIGGMYRGDRARKETLVEYGFRLPSALDNRPLKFEEFEALAPQTIYVSATPGNYELEKSGGDVVDQVVRPTGLLDPIIEVRPVATQVDDLLSEIRQRAAINERVLVTTLTKRMAEDLTEYLEEHGERVRYLHSDIDTVERMEIIRDLRLGEFDVLVGINLLREGLDMPEVSLVAILDADKEGFLRSERSLIQTIGRAARNVNGKAILYGDKITPSMAKAIGETERRREKQQKYNEEHGITPQGLNKKVVDILALGQNIAKTKAKGRGKSRPIVEPDNVPMDMSPKALQQKIHELEGLMMQHAQNLEFEEAAQIRDQLHQLRELFIAAS	
	B1	binds
